Data taken from PMC4434323.

Legend:
[1] = target: gei-3 (T22H6.6) (Caenorhabditis elegans) (UniProt Q0G833)
[2] = target: T1, tbx-38 (C24H11.3) (Caenorhabditis elegans) (UniProt Q9XVD5)
T1 sequence: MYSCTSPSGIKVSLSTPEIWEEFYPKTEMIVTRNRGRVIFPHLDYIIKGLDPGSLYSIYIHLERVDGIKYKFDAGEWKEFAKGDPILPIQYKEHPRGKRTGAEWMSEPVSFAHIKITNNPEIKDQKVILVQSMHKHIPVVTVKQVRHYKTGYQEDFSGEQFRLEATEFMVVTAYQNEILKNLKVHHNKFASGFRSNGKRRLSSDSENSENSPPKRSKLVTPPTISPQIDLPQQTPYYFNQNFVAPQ

[3] = target: T2, hlh-12 (C28C12.8) (Caenorhabditis elegans) (UniProt Q18277)
T2 sequence: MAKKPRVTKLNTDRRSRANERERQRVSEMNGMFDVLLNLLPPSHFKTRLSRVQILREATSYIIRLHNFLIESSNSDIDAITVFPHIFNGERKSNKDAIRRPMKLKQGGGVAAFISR

[4] = target: T3, tbx-43 (Y46E12A.4) (Caenorhabditis elegans) (UniProt Q1T6W8)
T3 sequence: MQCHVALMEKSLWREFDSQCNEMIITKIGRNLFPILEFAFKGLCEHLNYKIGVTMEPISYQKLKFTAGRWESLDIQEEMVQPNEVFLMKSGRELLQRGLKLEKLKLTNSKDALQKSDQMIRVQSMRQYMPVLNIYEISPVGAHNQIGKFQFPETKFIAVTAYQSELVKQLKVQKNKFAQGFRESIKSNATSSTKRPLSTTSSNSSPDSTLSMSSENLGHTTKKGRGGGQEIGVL

Sequence of gei-3 (T22H6.6) (Caenorhabditis elegans) (Q0G833 entry or part of it): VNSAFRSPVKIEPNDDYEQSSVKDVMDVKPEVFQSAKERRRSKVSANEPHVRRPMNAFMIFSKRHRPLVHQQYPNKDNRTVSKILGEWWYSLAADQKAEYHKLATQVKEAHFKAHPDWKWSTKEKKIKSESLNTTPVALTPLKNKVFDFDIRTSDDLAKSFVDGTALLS

Sequence	binding signal (PBM E-score (-0.5 to 0.5)) [1]	binding signal (PBM E-score (-0.5 to 0.5)) [2]	binding signal (PBM E-score (-0.5 to 0.5)) [4]	further results
AAATGAAT (double strand) [8-mer AAATGAAT]	0.472	–	–	–
AAGTGTGA (double strand) [8-mer AAGTGTGA]	–	0.494	–	–
AATGAATG (double strand) [8-mer AATGAATG]	0.481	–	–	–
ACCAGCTG (double strand) [8-mer ACCAGCTG]	–	–	–	binding signal (PBM E-score (-0.5 to 0.5)) [3]: 0.456
ACCATCTG (double strand) [8-mer ACCATCTG]	–	–	–	binding signal (PBM E-score (-0.5 to 0.5)) [3]: 0.482
AGGTGCGA (double strand) [8-mer AGGTGCGA]	–	0.49	0.48	–
AGGTGTCA (double strand) [8-mer AGGTGTCA]	–	–	0.497	–
AGGTGTGA (double strand) [8-mer AGGTGTGA]	–	0.498	0.499	–
AGGTGTTA (double strand) [8-mer AGGTGTTA]	–	0.494	0.497	–
AGTGTGAA (double strand) [8-mer AGTGTGAA]	–	0.496	0.494	–
ATCAATGA (double strand) [8-mer ATCAATGA]	0.485	–	–	–
ATCAATGG (double strand) [8-mer ATCAATGG]	0.477	–	–	–
ATCACACC (double strand) [8-mer ATCACACC]	–	–	0.486	–
ATGAATGA (double strand) [8-mer ATGAATGA]	0.489	–	–	–
ATGAATGG (double strand) [8-mer ATGAATGG]	0.489	–	–	–
ATTCACAC (double strand) [8-mer ATTCACAC]	–	0.494	0.489	–
ATTCGCAC (double strand) [8-mer ATTCGCAC]	–	0.489	–	–
CACAGCTG (double strand) [8-mer CACAGCTG]	–	–	–	binding signal (PBM E-score (-0.5 to 0.5)) [3]: 0.475

Sequence	binding signal (PBM E-score (-0.5 to 0.5)) [1]	binding signal (PBM E-score (-0.5 to 0.5)) [2]	binding signal (PBM E-score (-0.5 to 0.5)) [4]	further results
CAGCTGTC (double strand) [8-mer CAGCTGTC]	–	–	–	binding signal (PBM E-score (-0.5 to 0.5)) [3]: 0.479
CATTCATA (double strand) [8-mer CATTCATA]	0.474	–	–	–
CATTGATA (double strand) [8-mer CATTGATA]	0.472	–	–	–
CCCATTCA (double strand) [8-mer CCCATTCA]	0.478	–	–	–
GAGTGTGA (double strand) [8-mer GAGTGTGA]	–	0.484	–	–
GGGTGCGA (double strand) [8-mer GGGTGCGA]	–	0.485	–	–
GGGTGTCA (double strand) [8-mer GGGTGTCA]	–	–	0.484	–
GGGTGTGA (double strand) [8-mer GGGTGTGA]	–	0.487	0.49	–
GGTGCGAA (double strand) [8-mer GGTGCGAA]	–	0.494	0.48	–
GGTGTCAA (double strand) [8-mer GGTGTCAA]	–	–	0.495	–
GGTGTGAA (double strand) [8-mer GGTGTGAA]	–	0.497	0.499	–
GTGTGAAA (double strand) [8-mer GTGTGAAA]	–	0.483	0.494	–
TCAATGAA (double strand) [8-mer TCAATGAA]	0.485	–	–	–
TCAATGGA (double strand) [8-mer TCAATGGA]	0.473	–	–	–
TCAATTGA (double strand) [8-mer TCAATTGA]	0.484	–	–	–
TCCATTCA (double strand) [8-mer TCCATTCA]	0.48	–	–	–
TGAATGAA (double strand) [8-mer TGAATGAA]	0.491	–	–	–
TGAATTAA (double strand) [8-mer TGAATTAA]	0.474	–	–	–
